Tests used:
HeLa Kyoto [1] = assay: solubility change mitosis vs G1/S (difference of NP-40 vs SDS log2 ratios) (log2 ratio difference); higher = more soluble in mitosis
HeLa Kyoto [2] = assay: melting temperature (median over replicates), in situ; higher = more thermally stable
HeLa Kyoto [3] = assay: thermal stability score vs G1/S (z-score of summed log2 fold changes over temperatures); higher = more thermally stable than in G1/S
HeLa Kyoto [4] = assay: solubility in G1/S (NP-40 vs SDS abundance) (log2 ratio); higher = more soluble; conditions: cell cycle stage: G1/S
[5] = cell cycle stage: early G1 (4.5 h after nocodazole release)
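Wherever melting temperature (median over replicates), in situ is given: HeLa Kyoto cells synchronized by double thymidine or nocodazole block, proteins quantified by TMT10plex mass spectrometry, three independent biological replicates.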
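Wherever solubility change mitosis vs G1/S (difference of NP-40 vs SDS log2 ratios) is given: synchronized HeLa Kyoto cells (double thymidine block for G1/S, nocodazole release for mitosis), protein amounts in NP-40 versus SDS lysates quantified by mass spectrometry, three biological replicates.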
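Wherever solubility in G1/S (NP-40 vs SDS abundance) is given: HeLa Kyoto cells arrested at G1/S by double thymidine block, proteins quantified by TMT10plex mass spectrometry in mild NP-40 versus SDS extracts, three biological replicates.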
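Wherever thermal stability score vs G1/S (z-score of summed log2 fold changes over temperatures) is given: synchronized HeLa Kyoto cells, proteins quantified by TMT10plex mass spectrometry, three biological replicates, mitosis taken 0.5 h after nocodazole release, G1/S directly after double thymidine block.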

Row | Sequence | solubility change mitosis (log2) (HeLa Kyoto [1]) | melting temperature (HeLa Kyoto [2]; cell cycle stage: G1/S) [°C] | melting temperature (HeLa Kyoto [2]; cell cycle stage: mitosis) [°C] | thermal stability score (HeLa Kyoto [3]; [5]) | thermal stability score (HeLa Kyoto [3]; cell cycle stage: mitosis) | solubility in G1/S (log2) (HeLa Kyoto [4])
1 | MTGSNSHITILTLKVLPHFESLGKQEKIPNKMSAFRNHCPHLDSVGEITKEDLIQKSLGTCQDCKVQGPNLWACLENRCSYVGCGESQVDHSTIHSQETKHYLTVNLTTLRVWCYACSKEVFLDRKLGTQPSLPHVRQPHQIQENSVQDFKIPSNTTLKTPLVAVFDDLDIEADEEDELRARGLTGLKNIGNTCYMNAALQALSNCPPLTQFFLDCGGLARTDKKPAICKSYLKLMTELWHKSRPGSVVPTTLFQGIKTVNPTFRGYSQQDAQEFLRCLMDLLHEELKEQVMEVEEDPQTITTEETMEEDKSQSDVDFQSCESCSNSDRAENENGSRCFSEDNNETTMLIQDDENNSEMSKDWQKEKMCNKINKVNSEGEFDKDRDSISETVDLNNQETVKVQIHSRASEYITDVHSNDLSTPQILPSNEGVNPRLSASPPKSGNLWPGLAPPHKKAQSASPKRKKQHKKYRSVISDIFDGTIISSVQCLTCDRVSVTLETFQDLSLPIPGKEDLAKLHSSSHPTSIVKAGSCGEAYAPQGWIAFFMEYVKRFVVSCVPSWFWGPVVTLQDCLAAFFARDELKGDNMYSCEKCKKLRNGVKFCKVQNFPEILCIHLKRFRHELMFSTKISTHVSFPLEGLDLQPFLAKDSPAQIVTYDLLSVICHHGTASSGHYIAYCRNNLNNLWYEFDDQSVTEVSESTVQNAEAYVLFYRKSSEEAQKERRRISNLLNIMEPSLLQFYISRQWLNKFKTFAEPGPISNNDFLCIHGGVPPRKAGYIEDLVLMLPQNIWDNLYSRYGGGPAVNHLYICHTCQIEAEKIEKRRKTELEIFIRLNRAFQKEDSPATFYCISMQWFREWESFVKGKDGDPPGPIDNTKIAVTKCGNVMLRQGADSGQISEETWNFLQSIYGGGPEVILRPPVVHVDPDILQAEEKIEVETRSL [USP33] | -0.00182 | 51.5 | 51 | 1.09 | 2.47 | -0.427
2 | MTHSLVCPETVSRVSSVLNRNTRQFGKKHLFDQDEETCWNSDQGPSQWVTLEFPQLIRVSQLQIQFQGGFSSRRGCLEGSQGTQALHKIVDFYPEDNNSLQTFPIPAAEVDRLKVTFEDATDFFGRVVIYHLRVLGEKV [NR2C2AP] | -0.238 | 53.3 | 52.8 | 0.143 | -0.215 | 0.195
3 | MTLEAIRYSRGSLQILDQLLLPKQSRYEAVGSVHQAWEAIRAMKVRGAPAIALVGCLSLAVELQAGAGGPGLAALVAFVRDKLSFLVTARPTAVNMARAARDLADVAAREAEREGATEEAVRERVICCTEDMLEKDLRDNRSIGDLGARHLLERVAPSGGKVTVLTHCNTGALATAGYGTALGVIRSLHSLGRLEHAFCTETRPYNQGARLTAFELVYEQIPATLITDSMVAAAMAHRGVSAVVVGADRVVANGDTANKVGTYQLAIVAKHHGIPFYVAAPSSSCDLRLETGKEIIIEERPGQELTDVNGVRIAAPGIGVWNPAFDVTPHDLITGGIITELGVFAPEELRTALTTTISSRDGTLDGPQM [MRI1] | -0.154 | 52.5 | 52.4 | -0.841 | -0.966 | 0.21
4 | MTLTERLREKISRAFYNHGLLCASYPIPIILFTGFCILACCYPLLKLPLPGTGPVEFTTPVKDYSPPPVDSDRKQGEPTEQPEWYVGAPVAYVQQIFVKSSVFPWHKNLLAVDVFRSPLSRAFQLVEEIRNHVLRDSSGIRSLEELCLQVTDLLPGLRKLRNLLPEHGCLLLSPGNFWQNDWERFHADPDIIGTIHQHEPKTLQTSATLKDLLFGVPGKYSGVSLYTRKRMVSYTITLVFQHYHAKFLGSLRARLMLLHPSPNCSLRAESLVHVHFKEEIGVAELIPLVTTYIILFAYIYFSTRKIDMVKSKWGLALAAVVTVLSSLLMSVGLCTLFGLTPTLNGGEIFPYLVVVIGLENVLVLTKSVVSTPVDLEVKLRIAQGLSSESWSIMKNMATELGIILIGYFTLVPAIQEFCLFAVVGLVSDFFLQMLFFTTVLSIDIRRMELADLNKRLPPEACLPSAKPVGQPTRYERQLAVRPSTPHTITLQPSSFRNLRLPKRLRVVYFLARTRLAQRLIMAGTVVWIGILVYTDPAGLRNYLAAQVTEQSPLGEGALAPMPVPSGMLPPSHPDPAFSIFPPDAPKLPENQTSPGESPERGGPAEVVHDSPVPEVTWGPEDEELWRKLSFRHWPTLFSYYNITLAKRYISLLPVIPVTLRLNPREALEGRHPQDGRSAWPPPGPIPAGHWEAGPKGPGGVQAHGDVTLYKVAALGLATGIVLVLLLLCLYRVLCPRNYGQLGGGPGRRRRGELPCDDYGYAPPETEIVPLVLRGHLMDIECLASDGMLLVSCCLAGHVCVWDAQTGDCLTRIPRPGRQRRDSGVGSGLEAQESWERLSDGGKAGPEEPGDSPPLRHRPRGPPPPSLFGDQPDLTCLIDTNFSAQPRSSQPTQPEPRHRAVCGRSRDSPGYDFSCLVQRVYQEEGLAAVCTPALRPPSPGPVLSQAPEDEGGSPEKGSPSLAWAPSAEGSIWSLELQGNLIVVGRSSGRLEVWDAIEGVLCCSSEEVSSGITALVFLDKRIVAARLNGSLDFFSLETHTALSPLQFRGTPGRGSSPASPVYSSSDTVACHLTHTVPCAHQKPITALKAAAGRLVTGSQDHTLRVFRLEDSCCLFTLQGHSGAITTVYIDQTMVLASGGQDGAICLWDVLTGSRVSHVFAHRGDVTSLTCTTSCVISSGLDDLISIWDRSTGIKFYSIQQDLGCGASLGVISDNLLVTGGQGCVSFWDLNYGDLLQTVYLGKNSEAQPARQILVLDNAAIVCNFGSELSLVYVPSVLEKLD [SCAP] | -0.108 | 53.4 | 52.8 | -0.535 | 0.3 | -0.105
5 | MTMPVNGAHKDADLWSSHDKMLAQPLKDSDVEVYNIIKKESNRQRVGLELIASENFASRAVLEALGSCLNNKYSEGYPGQRYYGGTEFIDELETLCQKRALQAYKLDPQCWGVNVQPYSGSPANFAVYTALVEPHGRIMGLDLPDGGHLTHGFMTDKKKISATSIFFESMPYKVNPDTGYINYDQLEENARLFHPKLIIAGTSCYSRNLEYARLRKIADENGAYLMADMAHISGLVAAGVVPSPFEHCHVVTTTTHKTLRGCRAGMIFYRKGVKSVDPKTGKEILYNLESLINSAVFPGLQGGPHNHAIAGVAVALKQAMTLEFKVYQHQVVANCRALSEALTELGYKIVTGGSDNHLILVDLRSKGTDGGRAEKVLEACSIACNKNTCPGDRSALRPSGLRLGTPALTSRGLLEKDFQKVAHFIHRGIELTLQIQSDTGVRATLKEFKERLAGDKYQAAVQALREEVESFASLFPLPGLPDF [SHMT1] | -0.0876 | 58.2 | 58.2 | -2.14 | -2.12 | 0.366
6 | MTSEVIEDEKQFYSKAKTYWKQIPPTVDGMLGGYGHISSIDINSSRKFLQRFLREGPNKTGTSCALDCGAGIGRITKRLLLPLFREVDMVDITEDFLVQAKTYLGEEGKRVRNYFCCGLQDFTPEPDSYDVIWIQWVIGHLTDQHLAEFLRRCKGSLRPNGIIVIKDNMAQEGVILDDVDSSVCRDLDVVRRIICSAGLSLLAEERQENLPDEIYHVYSFALR [NTMT1] | -0.15 | 49.9 | 51.2 | 1.31 | 1.61 | 0.238
